Results taken from patent CN114989309A.

Molecular target: T1, 抗原表位融合多肽AFBMG
T1 sequence: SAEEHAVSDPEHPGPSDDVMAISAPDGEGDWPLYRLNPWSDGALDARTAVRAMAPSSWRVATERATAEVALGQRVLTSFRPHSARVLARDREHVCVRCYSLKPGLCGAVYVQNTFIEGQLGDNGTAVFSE
Assay: colloidal gold test strip with gold-labelled Nano-AF; dilution series of AFBMG from 1 mg/mL, three repeats

B1: 黄曲霉毒素纳米抗体Nano-AF (VHH)
VHH: QLQLGGSGGGLVQPGGLVQACAASGSTFAGFRAMGWRQAFRQAREFVAAITWSGASTYYTDSVKGRFTISRDNAKNTVYLQMNNLESLKPEDTAVYYCAGFMYYASNYCRYWGQGTQVTVSS
Q: B1 was tested. Which 最低检测限 did it give?
A: 10 ng/mL
